Test results reported in PMC8501640, “Altered Env conformational dynamics as a mechanism of resistance to peptide-triazole HIV-1 inactivators” (Retrovirology, 2021).

Columns and labels:
[1] = target: HIV-1 HxBc2 gp120 V255I, monomeric (HIV-1 (HxBc2 strain)) (UniProt P04578); assay: SPR; Biacore 3000, 25 °C, PBS-P (10 mM phosphate, 150 mM NaCl, pH 7.4, 0.005% P-20); gp120 monomers amine-coupled to CM5 chip (1800–2200 RU), analytes flowed at 50 µL/min; AAR029b and sCD4 fitted to a Langmuir 1:1 model, KR13 to a three-state binding/isomerization model
[2] = target: HIV-1 HxBc2 gp120 V255I/S143N, monomeric (HIV-1 (HxBc2 strain)) (UniProt P04578); assay: as above
[3] = target: HIV-1 HxBc2 gp120, wild type, monomeric (HIV-1 (HxBc2 strain)) (UniProt P04578); assay: SPR
[4] = target: HIV-1 HxBc2 Env V255T/S143N (HIV-1 (HxBc2 strain)) (UniProt P04578)
[5] = target: HIV-1 NL4-3 Env V255I (HIV-1 (NL4-3 strain))
[6] = target: HIV-1 NL4-3 Env V255T/S143N (HIV-1 (NL4-3 strain))
[7] = target: HIV-1 HxBc2 Env V255T (HIV-1 (HxBc2 strain)) (UniProt P04578)
[8] = target: HIV-1 NL4-3 Env V255T (HIV-1 (NL4-3 strain))
[9] = target: HIV-1 NL4-3 Env V255I/S143N (HIV-1 (NL4-3 strain))
[10] = target: HIV-1 HxBc2 gp120 V255I, monomeric (HIV-1 (HxBc2 strain)) (UniProt P04578)
[11] = target: HIV-1 HxBc2 Env S143N (HIV-1 (HxBc2 strain)) (UniProt P04578)
[12] = target: HIV-1 HxBc2 gp120 V255I/S143N, monomeric (HIV-1 (HxBc2 strain)) (UniProt P04578)
[13] = target: HIV-1 NL4-3 Env S143N (HIV-1 (NL4-3 strain))
[14] = target: HIV-1 HxBc2 gp120, wild type, monomeric (HIV-1 (HxBc2 strain)) (UniProt P04578); assay: ITC
[15] = target: HIV-1 HxBc2 gp120 V255I, monomeric (HIV-1 (HxBc2 strain)) (UniProt P04578); assay: ITC; VP-ITC, 25 °C, 1 × PBS pH 7.4; 60–100 µM PT titrated in 8 µL steps into 2–8 µM monomeric HxBc2 gp120; single site-binding model
[16] = target: HIV-1 HxBc2 gp120 V255I/S143N, monomeric (HIV-1 (HxBc2 strain)) (UniProt P04578); assay: as above

KR13, linear peptide triazole thiol was tested, and the k1 (association step of the three-state model) [1] was 230000 M⁻¹ s⁻¹, the k2 (isomerization step of the three-state model) [1] was 0.0084 s⁻¹ and the k-1 (dissociation step of the three-state model) [1] was 0.014 s⁻¹. For the same substance, the k-2 (de-isomerization step of the three-state model) [1] was 0.00072 s⁻¹, the k1 (association step of the three-state model) [2] was 280000 M⁻¹ s⁻¹ and the k2 (isomerization step of the three-state model) [2] was 0.009 s⁻¹. The k-1 (dissociation step of the three-state model) [2] was 0.018 s⁻¹, the k-2 (de-isomerization step of the three-state model) [2] was 0.001 s⁻¹ and the Kd [3] was 1.1 nM. The k1 (association step of the three-state model) [3] was 290000 M⁻¹ s⁻¹, the k2 (isomerization step of the three-state model) [3] was 0.007 s⁻¹ and the k-1 (dissociation step of the three-state model) [3] was 0.0096 s⁻¹. It also gave a k-2 (de-isomerization step of the three-state model) [3] of 0.00025 s⁻¹, an IC50 of inhibition of single-round infection of HOS.T4.X4 cells by HIV-1 pseudotyped with HxBc2 Env (luciferase) [4] of 7100 nM and an IC50 of inhibition of single-round infection of HOS.T4.X4 cells by HIV-1 pseudotyped with NL4-3 Env (luciferase) [5] of 120 nM. The IC50 of inhibition of single-round infection of HOS.T4.X4 cells by HIV-1 pseudotyped with NL4-3 Env (luciferase) [6] was 6200 nM, the IC50 of inhibition of single-round infection of HOS.T4.X4 cells by HIV-1 pseudotyped with HxBc2 Env (luciferase) [7] was 330 nM and the IC50 of inhibition of single-round infection of HOS.T4.X4 cells by HIV-1 pseudotyped with NL4-3 Env (luciferase) [8] was 360 nM. For the same substance, the IC50 of inhibition of single-round infection of HOS.T4.X4 cells by HIV-1 pseudotyped with NL4-3 Env (luciferase) [9] was 3700 nM, the IC50 of inhibition of single-round infection of HOS.T4.X4 cells by HIV-1 pseudotyped with HxBc2 Env (luciferase) [10] was 91 nM and the IC50 of inhibition of single-round infection of HOS.T4.X4 cells by HIV-1 pseudotyped with HxBc2 Env (luciferase) [11] was 1.4 nM. The IC50 of inhibition of single-round infection of HOS.T4.X4 cells by HIV-1 pseudotyped with HxBc2 Env (luciferase) [12] was 4600 nM, the IC50 of inhibition of single-round infection of HOS.T4.X4 cells by HIV-1 pseudotyped with NL4-3 Env (luciferase) [13] was 3.5 nM and the Kd [14] was 16 nM. The dH [14] was -19 kcal/mol, the stoichiometry N [14] was 1.1 and the dH [15] was -13 kcal/mol. It also gave a stoichiometry N [15] of 1, a dH [16] of -12 kcal/mol and a stoichiometry N [16] of 1.1.
